# Measurements reported in patent US20220259593A1, “CONTROL OF MAMMALIAN GENE DOSAGE USING CRISPR” (The Regents of the University of California, priority 2019, published 2022).
# Test system: K562 CRISPRi cells
# Assay: Constant region variant library pooled growth screen, K562
# Assay type: cell-based, human
# Settings: sgRNA constant region variants; activity relative to the original, un-modified constant region cr995
# Summary of the method: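 Growth screens in K562 CRISPRi cells were harvested 4-8 days post-selection at >2000× library coverage. Each variant's phenotype was referenced to the unmodified constant region with the same targeting sequence.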
row,Molecule,Mean relative activity
1,"cr197 (nucleic acid, listed as DNA, chemistry not fully specified) guide: GTTTAAGAGCTAAGCTGGAAACAGCATAGCAAGTTTAAATAATGCTAGTCAGTTATCAACTGGAAACAGTGGCACCGAGTCGGTGCT",0.06436
2,"cr050 (nucleic acid, listed as DNA, chemistry not fully specified) guide: CTTTAGGAGCTAAGCTGGAAACAGCATAGCAAGTTTAAATAAGGCTAGTCCGTTATCAACTTGAAAAAGTGGCACCGAGTCGGTGCT",0.04785
3,"cr767 (nucleic acid, listed as DNA, chemistry not fully specified) guide: GTTTAAGAGCTAAGCTGGAAACAGCATAGCAAGATTAAATAAGGCTAGTCCGTTATCAACTTGAAAAAGTGGCACCGTGTCGGTGCT",0.0381
4,"cr681 (nucleic acid, listed as DNA, chemistry not fully specified) guide: GTTTAAGAGCTAAGCTGGAAACAGCATAGCAAGTTTAAATAAGGCTACTCCGTTATTAACTTGAAAAAGTGGCACCGAGTCGGTGCT",0.03559
5,"cr465 (nucleic acid, listed as DNA, chemistry not fully specified) guide: GTTTAAGAGCTAAGCTGGAAACAGCATAGCAAGCTTAAATAAGGATATTCCGTTATCAACTTGAAAAAGTGGCACCGAGTCGGTGCT",0.04864
6,"cr677 (nucleic acid, listed as DNA, chemistry not fully specified) guide: GTTTAAGAGCTAAGCTGGAAACAGCATAGCAAGTTTAAATTAGGCTAGTCCGTTATCAACTTGAAAAAGTGGCACCGAGTCGGTGCT",0.04623
7,"cr422 (nucleic acid, listed as DNA, chemistry not fully specified) guide: GTTTAAGAGCTAAGCTGGAAACAGCATAGCAAGTTTAAATAAGGCTAGTCCGTTATCAACTTGAAAAAGTGGTACCGAGTCGTTCCT",0.0493
8,"cr078 (nucleic acid, listed as DNA, chemistry not fully specified) guide: GTTTTGGAGCTAAGCTGGAAACAGCATAGCAAGTTTAAATAAGGCTAGTCCGTTATCAACTTGAAAAAGTGGCACCGAGTCGGTGCT",0.03507
9,"cr045 (nucleic acid, listed as DNA, chemistry not fully specified) guide: TTTTATGAGCTAAGCTGGAAACAGCATAGCAAGTTTAAATAAGGCTAGTCCGTTATCAACTTGAAAAAGTGGCACCGAGTCGGTGCT",0.04839
10,"cr743 (nucleic acid, listed as DNA, chemistry not fully specified) guide: GTTTAAGAGCTAAGCTGGAAACAGCATAGCAACTTTAAATAAGGCTAGTCCGTTATCAACTTGAAAAAGTGGCGCCGAGTCGGCGCT",0.03495
11,"cr202 (nucleic acid, listed as DNA, chemistry not fully specified) guide: GTTTAAGAGCTAAGCTGGAAACAGCATAGCAACTTTAAATAAGGCTAGTCCGTTATCAACTTGAAAAAGTGACACCGAGTCGGTGTT",0.03423
12,"cr188 (nucleic acid, listed as DNA, chemistry not fully specified) guide: GTTTAAGAGCTAAGCTGGAAACAGCATAGCAAGTTTAAATAATGCTAGTCAGTTATCAACCTGAAAAGGTGGCACCGAGTCGGTGCT",0.04409
13,"cr514 (nucleic acid, listed as DNA, chemistry not fully specified) guide: GTTTAAGAGCTAAGCTGGAAACAGCATAGCAACTTTAAATAAGGCTAGTCCGTTATCAACTTGAAAAAGTGGGACCGAGTCGGTCCT",0.05776
14,"cr741 (nucleic acid, listed as DNA, chemistry not fully specified) guide: GTTTAAGAGCTAAGCTGGAAACAGCATGGCAAGTTTAAATACGGCTAGACCGTTATCAACTTGAAAAAGTGGCACCGAGTCGGTGCT",0.06347
15,"cr138 (nucleic acid, listed as DNA, chemistry not fully specified) guide: GTTTAAGAGCTAAGCTGGAAACAGCATAGCAAGCTTAAATAAGGCTAGTCCGTTATCAACTTGAAAAAGTGGCACGGAGTCCGTGCT",0.04307
16,"cr222 (nucleic acid, listed as DNA, chemistry not fully specified) guide: GTTTAAGAGCTAAGCTGGAAACAGCATAGCAAGGTTAAATAAGGCTAGTCCGTTATCAGCTTGAAAAAGCGGCACCGAGTCGGTGCT",0.03915

row,Molecule,Mean relative activity
1,"cr061 (nucleic acid, listed as DNA, chemistry not fully specified) guide: GTTCAACAGCTAAGCTGGAAACAGCATAGCAAGTTTAAATAAGGCTAGTCCGTTATCAACTTGAAAAAGTGGCACCGAGTCGGTGCT",0.05691
2,"cr208 (nucleic acid, listed as DNA, chemistry not fully specified) guide: GTTTAAGAGCTAAGCTGGAAACAGCATAGCAAGTTTAAATAAGGCTAGTCCTTCATCAACTTGAAGAAGTGGCACCGAGTCGGTGCT",0.03711
3,"cr776 (nucleic acid, listed as DNA, chemistry not fully specified) guide: GTTTAAGAGCTAAGCTGGAAACAGCATAGCAAGTTTAAATAAGGCTAGTCCGTTATCATCTAGAAATAGAGGCACCGAGTCGGTGCT",1.037
4,"cr211 (nucleic acid, listed as DNA, chemistry not fully specified) guide: GTTTAAGAGCTAAGCTGGAAACAGCATAGCAAGTTTAAATAAGTCTAGTCCGTTATCAACTTGAAAAAGTGGCACCGAGTCGGTGCT",0.04075
5,"cr764 (nucleic acid, listed as DNA, chemistry not fully specified) guide: GTTTAAGAGCTAAGCTGGAAACAGCATAGCAACTTTAAATAAGGCTAGTCCGTTATCAACTTGAAAAAGTGGCACCGAGTCGGTGCT",0.04863
6,"cr625 (nucleic acid, listed as DNA, chemistry not fully specified) guide: GTTTAAGAGCTAAGCTGGAAACAGCATAGCAAGCTTAAATAAGGCTAGTCCGTTATCAACTTGAAAAAGTGGCACCTAGTAGGTGCT",0.04332
7,"cr419 (nucleic acid, listed as DNA, chemistry not fully specified) guide: GTTTAAGAGCTAAGCTGGAAACAGCATAGCAACTTTAAATAAGGCTAGTCCGTTATCAACTTGAAAAAGTGGAACCGAGTCGGTTCT",0.05682
8,"cr498 (nucleic acid, listed as DNA, chemistry not fully specified) guide: GTTTAAGAGCTAAGCTGGAAACAGCATAGCAAGTTTAATTAAGGCTAGTCCGTTATCAACTTGAAAAAGTGGCACCGAGTCGGTGCT",0.03563
9,"cr193 (nucleic acid, listed as DNA, chemistry not fully specified) guide: GTTTAAGAGCTAAGCTGGAAACAGCATAGCAAGTTTAAATAAAGCTAGTCTGTTATCAATTTGAAAAAATGCCACCGAGTCGGTGGT",0.06081
10,"cr107 (nucleic acid, listed as DNA, chemistry not fully specified) guide: GTTTAAGAGCTAAGCTGGAAACAGCATAGCAAGTTTAAATAATGCTAGTCAGTTATCAACTTGAAAAAGTGGCAACGAGTCGTTGCT",0.03837
11,"cr708 (nucleic acid, listed as DNA, chemistry not fully specified) guide: GTTTAAGAGCTAAGCTGGAAACAGCATAGCAAGTTTAAATAATGCTAGTCAGTTATCAACTTGAAAAAGTGGCACCGAGTCGGTGCT",0.0394
12,"cr298 (nucleic acid, listed as DNA, chemistry not fully specified) guide: GTTTAAGAGCTAAGCTGGAAACAGCATAGCAAGTTTAAATAAGGCTAGTCCTTTATCAACTTGAAAAAGTGGCACCGACTCGGTGCT",0.06335
13,"cr115 (nucleic acid, listed as DNA, chemistry not fully specified) guide: GTTTAAGAGCTAAGCTGGAAACAGCATAGCAAGTTTAAATAATGCTAGTCAGTTATCAACTCGAAAGAGTGGCACCGAGTCGGTGCT",0.05506
14,"cr335 (nucleic acid, listed as DNA, chemistry not fully specified) guide: GTTTAAGAGCTAAGCTGGAAACAGCATAGCAAGTTTAAATAAGGCTAGTCCGTTATCAACTTGAAAAAGTGACGCCGAGTCGGCGTT",1.036
15,"cr928 (nucleic acid, listed as DNA, chemistry not fully specified) guide: GTTTAAGAGCTAAGCTGGAAACAGCATAGCTAGTTTAAATGAGGCTAGTCCGTAATCAACTTGAAAAAGTGGCACCGAGTCGGTGCT",0.05583
